Experiments:
c-Jun = experiment: immunoprecipitation and densitometry of c-Jun protein in stable JB6 transfectants; type: cell-based, mouse; conditions: 10 ng/ml, fifteen hours, TAM67 or Neo-only transfectants
Description: Three TAM67 clonal transfectants (M4, M3, M6) and one neo-only clonal transfectant (N1) were treated for fifteen hours with either 10 ng/ml TPA (T), 10 ng/ml EGF (E), or 0.1% DMSO (D) prior to metabolic labelling for two hours with 0.2 mCi/ml ^35S -methionine (Amersham, Rockford, Ill.) (Sun, Y. et al. (1993) Mol. Carcinogenesis, 8: 49-57). Cellular lysates were then collected and immunoprecipitations using polyclonal rabbit c-jun antibody (AB-1 antibody, Oncogene Science) were carried out overnite at 4° C. (Sun et al. (1993)). These immunoprecipitates were then analyzed by electrophoresis on 12.5% SDS polyacrylamide gels and these gels are shown in FIG. 4.

AP-1 = experiment: CAT assay with stromelysin promoter reporter P750TRCAT (AP-1 dependent) in JB6 P+ Cl 41 cells; type: cell-based, mouse; conditions: 10 ng/ml, eight hours
Excerpt: The plasmid constructs used in the following examples were as follows: P750TRCAT is a CAT reporter construct containing 750 bp of the rat stromelysin promoter driving the heterogolous gene chloramphenicol acetyl-transferase (CAT). This construct contains an AP-1 binding sequence at position −70 (Matrisian, L. M. et al. (1991) Am. J. Medic. Sci., 302: 157-162, Kerr, L. D. et al. (1988) Science., 242: 1424-1427, McDonnell, S. E. et al. (1990) Mol. Cell. Biol. 105 4284-4293). The mTRE-CAT reporter is a site-directed mutant with 2 point mutations in the AP-1 site (Matrisian, L. M. et al. (1991) Am. J. Medic. Sci., 302: 157-162) and the mPEA3-CAT reporter is a site-directed mutant in which point mutations in each of the PEA3 sites at position −208 to −200 and −191 to −199 of the stromelysin promoter were introduced using a protocol provided with the site-directed mutagenesis kit of Amersham Corp. (Arlington Heights, Ill.) and an oligonucleotide having SEQ ID NO.:1 GCAAGAAGCATTTCTTGG.
In brief, JB6 Cl 41 (P^+) cells transfected for 4-5 hours using a standard calcium phosphate transfection procedure (Sambrook, J. et al. (1989) “Molecular Cloning, A Laboratory Manual” Cold Spring Harbor Laboratory Press, Cold Spring Harbor, N.Y.) with 10 μg of one of three CAT reporter plasmid DNAs, P750TRCAT, mTRE-CAT or mPEA3-CAT and 10 μg of sheared genomic DNA isolated from Cl 41 cells were then changed to medium containing 2% fetal calf serum and twenty-four to forty-two hours later, were treated with either 0.1% of DMSO, 10 ng/ml of TPA or 10 ng/ml EGF for eight hours prior to preparation of total cell extracts. CAT enzyme activity was assayed using a diffusion-based CAT assay according to the protocol provided by the manufacturers (New England Nuclear, Del.). The results are expressed as the rate of accumulation of [^14C]-acetylated product relative to solvent controls (DMSO).
In order to determine whether TPA-induced CAT activity in JB6 P^+ cells is capable of being abolished, TPA induced CAT activity was measured in the presence of the known AP-1 inhibitors retinoic acid (RA) and fluocinolone acetonide (FA). In brief, JB6 P^+ Cl 41 cells were transfected with 10 μg of P750TRCAT and 10 μg of sheared genomic DNA from Cl 41 cells as in Example 1. […] As before, the results are expressed as the rate of accumulation of ^14C-acetylated product relative to solvent controls. […]

B1: epidermal growth factor (protein, UniProt P01133 23-1207, looked up)
Pro-epidermal growth factor: PQHWSCPEGTLAGNGNSTCVGPAPFLIFSHGNSIFRIDTEGTNYEQLVVDAGVSVIMDFHYNEKRIYWVDLERQLLQRVFLNGSRQERVCNIEKNVSGMAINWINEEVIWSNQQEGIITVTDMKGNNSHILLSALKYPANVAVDPVERFIFWSSEVAGSLYRADLDGVGVKALLETSEKITAVSLDVLDKRLFWIQYNREGSNSLICSCDYDGGSVHISKHPTQHNLFAMSLFGDRIFYSTWKMKTIWIANKHTGKDMVRINLHSSFVPLGELKVVHPLAQPKAEDDTWEPEQKLCKLRKGNCSSTVCGQDLQSHLCMCAEGYALSRDRKYCEDVNECAFWNHGCTLGCKNTPGSYYCTCPVGFVLLPDGKRCHQLVSCPRNVSECSHDCVLTSEGPLCFCPEGSVLERDGKTCSGCSSPDNGGCSQLCVPLSPVSWECDCFPGYDLQLDEKSCAASGPQPFLLFANSQDIRHMHFDGTDYGTLLSQQMGMVYALDHDPVENKIYFAHTALKWIERANMDGSQRERLIEEGVDVPEGLAVDWIGRRFYWTDRGKSLIGRSDLNGKRSKIITKENISQPRGIAVHPMAKRLFWTDTGINPRIESSSLQGLGRLVIASSDLIWPSGITIDFLTDKLYWCDAKQSVIEMANLDGSKRRRLTQNDVGHPFAVAVFEDYVWFSDWAMPSVMRVNKRTGKDRVRLQGSMLKPSSLVVVHPLAKPGADPCLYQNGGCEHICKKRLGTAWCSCREGFMKASDGKTCLALDGHQLLAGGEVDLKNQVTPLDILSKTRVSEDNITESQHMLVAEIMVSDQDDCAPVGCSMYARCISEGEDATCQCLKGFAGDGKLCSDIDECEMGVPVCPPASSKCINTEGGYVCRCSEGYQGDGIHCLDIDECQLGEHSCGENASCTNTEGGYTCMCAGRLSEPGLICPDSTPPPHLREDDHHYSVRNSDSECPLSHDGYCLHDGVCMYIEALDKYACNCVVGYIGERCQYRDLKWWELRHAGHGQQQKVIVVAVCVVVLVMLLLLSLWGAHYYRTQKLLSKNPKNPYEESSRDVRSRRPADTEDGMSSCPQPWFVVIKEHQDLKNGGQPVAGEDGQAADGSMQPTSWRQEPQLCGMGTEQGCWIPVSSDKGSCPQVMERSFHMPSYGTQTLEGGVEKPHSLLSANPLWQQRALDPPHQMELTQ
modifications: Pro-epidermal growth factor
notes: tumor promoter, peptide growth factor
c-Jun protein levels (43 kDa band, densitometric analysis) (c-Jun): no significant differences | increase in AP-1 dependent CAT activity in neo-only transfectants (AP-1; N1-N3 transfectants, P750TRCAT): three to four fold increases | CAT activity relative to uninduced cells, P750TRCAT reporter (AP-1; P750TRCAT-transfected JB6 P+ Cl 41 cells): about 2 fold | CAT activity relative to uninduced cells, mPEA3-CAT reporter (AP-1; mPEA3-CAT-transfected JB6 P+ Cl 41 cells (PEA3 sites mutated)): about 2 fold | inducibility of CAT activity, mTRE-CAT reporter (AP-1; mTRE-CAT-transfected cells (AP-1 binding site mutated)): loss of inducibility

Source: patent US6699842B1, “Dominant negative deletion mutants of C-jun and their use in the prevention and treatment of cancer” (The United States of America as represented by the …, priority 1994, dated 2004)
